Source: paper PMC8750365

What was measured:
[1] = molecular target: Endogenous TOP1 of U2OS cells (human (endogenous in U2OS)) (UniProt P11387); test: proximity ligation
[2] = molecular target: Endogenous TOP2A of U2OS cells (human (endogenous in U2OS)) (UniProt P11388); test: proximity ligation
Chain of UniProt P11388 (P11388 whole entry): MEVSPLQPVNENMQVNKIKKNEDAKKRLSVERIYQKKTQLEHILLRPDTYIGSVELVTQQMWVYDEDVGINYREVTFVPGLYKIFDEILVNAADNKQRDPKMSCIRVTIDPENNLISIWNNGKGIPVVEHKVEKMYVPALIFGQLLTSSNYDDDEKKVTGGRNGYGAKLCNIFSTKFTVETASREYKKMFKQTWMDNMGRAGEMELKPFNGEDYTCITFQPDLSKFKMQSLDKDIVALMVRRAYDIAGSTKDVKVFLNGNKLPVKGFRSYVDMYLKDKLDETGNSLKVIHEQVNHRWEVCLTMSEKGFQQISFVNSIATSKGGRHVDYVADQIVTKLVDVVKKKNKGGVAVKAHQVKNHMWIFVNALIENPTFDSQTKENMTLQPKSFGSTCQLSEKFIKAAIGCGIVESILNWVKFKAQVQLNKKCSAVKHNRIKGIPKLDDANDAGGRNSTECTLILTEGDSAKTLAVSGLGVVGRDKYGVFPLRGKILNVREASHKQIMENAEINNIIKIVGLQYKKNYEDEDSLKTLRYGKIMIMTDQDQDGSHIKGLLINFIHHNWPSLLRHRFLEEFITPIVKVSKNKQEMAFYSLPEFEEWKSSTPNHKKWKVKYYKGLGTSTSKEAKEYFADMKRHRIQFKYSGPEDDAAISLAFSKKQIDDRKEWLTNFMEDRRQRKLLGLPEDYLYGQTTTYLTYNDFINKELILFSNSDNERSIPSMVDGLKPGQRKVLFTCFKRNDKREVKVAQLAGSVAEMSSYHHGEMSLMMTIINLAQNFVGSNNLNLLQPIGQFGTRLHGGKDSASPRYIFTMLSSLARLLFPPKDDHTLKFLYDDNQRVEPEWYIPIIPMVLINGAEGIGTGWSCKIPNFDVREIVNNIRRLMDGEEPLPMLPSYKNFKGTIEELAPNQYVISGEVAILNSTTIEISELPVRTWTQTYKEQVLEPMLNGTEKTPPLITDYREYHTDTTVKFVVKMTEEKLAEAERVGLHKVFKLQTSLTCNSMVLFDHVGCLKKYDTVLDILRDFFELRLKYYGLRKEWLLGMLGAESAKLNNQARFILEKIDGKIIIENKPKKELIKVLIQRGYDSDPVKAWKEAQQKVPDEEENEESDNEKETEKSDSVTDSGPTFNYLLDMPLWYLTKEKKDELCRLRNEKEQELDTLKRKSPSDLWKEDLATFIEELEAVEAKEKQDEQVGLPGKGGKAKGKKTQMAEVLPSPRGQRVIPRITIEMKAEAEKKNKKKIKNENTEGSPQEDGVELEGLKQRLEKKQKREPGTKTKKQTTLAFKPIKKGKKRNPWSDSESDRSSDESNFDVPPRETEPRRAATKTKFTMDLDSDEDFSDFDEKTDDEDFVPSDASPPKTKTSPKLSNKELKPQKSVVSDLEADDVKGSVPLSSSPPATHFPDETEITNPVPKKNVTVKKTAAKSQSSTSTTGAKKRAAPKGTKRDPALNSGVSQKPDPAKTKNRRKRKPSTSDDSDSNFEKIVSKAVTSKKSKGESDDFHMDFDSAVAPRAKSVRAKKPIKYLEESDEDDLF

Chain of UniProt P11387 (P11387 whole entry): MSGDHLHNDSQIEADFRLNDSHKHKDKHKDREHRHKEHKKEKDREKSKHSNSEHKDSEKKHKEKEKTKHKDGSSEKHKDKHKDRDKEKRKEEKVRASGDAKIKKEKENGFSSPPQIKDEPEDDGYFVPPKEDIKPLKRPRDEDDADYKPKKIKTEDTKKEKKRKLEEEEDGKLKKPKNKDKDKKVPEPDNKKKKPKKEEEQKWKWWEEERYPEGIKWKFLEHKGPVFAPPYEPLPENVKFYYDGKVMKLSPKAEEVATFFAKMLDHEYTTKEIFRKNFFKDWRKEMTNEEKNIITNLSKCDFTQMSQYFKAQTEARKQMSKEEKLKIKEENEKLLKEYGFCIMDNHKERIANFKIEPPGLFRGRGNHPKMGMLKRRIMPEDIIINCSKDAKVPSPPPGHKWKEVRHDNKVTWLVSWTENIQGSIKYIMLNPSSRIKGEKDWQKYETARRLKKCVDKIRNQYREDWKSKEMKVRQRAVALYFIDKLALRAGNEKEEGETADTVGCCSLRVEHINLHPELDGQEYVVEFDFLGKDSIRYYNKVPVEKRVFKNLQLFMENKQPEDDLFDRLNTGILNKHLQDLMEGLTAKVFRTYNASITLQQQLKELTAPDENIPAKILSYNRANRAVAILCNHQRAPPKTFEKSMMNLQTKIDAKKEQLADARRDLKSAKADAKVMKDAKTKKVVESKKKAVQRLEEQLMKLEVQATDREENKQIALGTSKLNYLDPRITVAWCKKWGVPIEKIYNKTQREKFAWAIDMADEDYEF

Row | PLA dots/cell (untreated cells) [1] | PLA dots/cell (untreated cells) [2] | PLA dots/cell (with Dox) [1] | PLA dots/cell (with Dox) [2] | Substance
1 | 60 dots/cell | 60 dots/cell |  |  | Endogenous MYC of U2OS cells (from UniProt P01106 1-454) (natural protein)
2 |  |  | > 80 dots/cell | > 80 dots/cell | MYC-EGFP, doxycycline-inducible, in U2OS-MYC-EGFP cells (from UniProt P01106 1-454) (natural protein)
